In patent US20050064507A1, “Determining kinase specificity” (priority 2003, published 2005):

Tests used:
Assay type in all cases: biochemical
AKT1 = molecular target: T1, AKT1 (Homo sapiens, UniProt P31749); assay: In vitro kinase assay: peptide phosphorylation by AKT1; conditions: normalized to best substrate
T1 construct: purchased Panvera
Description: (§1) Catalytically active preparations of the kinases of interest were either purchased or prepared. Purchased and tested active kinase preparations including the following: PKC-alpha, PKC-delta, PKC-epsilon, PKC-zeta, PKC-mu, PKA, PKG from Calbiochem, ROK alpha/ROCK-II, active from Upstate Biotechnology, and AKT1 from Panvera.
(§2) The conditions of the kinase assay and the amount of active kinase used varied with the kinase and with the accuracy needed. For a typical experiment, 5-20 ng of kinase was used per well and each peptide pool was assayed in duplicate wells. Note that the absolute amount of kinase used was not usually a critical parameter, because the desired information related to specificity of the kinase not its absolute activity, and robustness of the assay depends on comparisons of the same amount of kinase on different peptides. The combination of kinase concentration and assay duration was modified to assure that the stoichiometry of peptide phosphorylation never exceeded 5%. The choice of kinase buffer depended on the kinase being analyzed. For studies of PKC, 100 mM HEPES, 0.05% Triton-X100, 1 mM CaCl2, 20 mM MgCl2, 0.2 mg/ml phosphatidyl serine (Avanti Polar Lipids), PMA 100 ng/ml was typically used. The lipid stock was prepared by transferring 3 mg phosphatidyl serine into iced mixture of 450 μl water plus 50 μl of 10% Triton-X100, sonicating 10 times on ice for 1 sec each.
(§3) The kinase reaction mixture was assembled by sequential addition to a tube held on ice of: 5 μl peptide (100 μM for final concentration of 10 μM), 15 μl of kinase (typically 5 ng/well, in appropriate kinase buffer), 30 μl of ATP (1 uCi/well of ^32P-gamma ATP in a stock of 167 μM cold ATP in the kinase buffer; for final concentration for 100 μM ATP). The mixture was rapidly warmed to desired reaction temperature (30° C. for PKC) and incubated for the desired duration (usually 10 minutes). The kinase assay was terminated by transfer to 4° C. water batch, and rapid addition of an equal volume (50 μl) of stop solution [0.1M ATP+0.1M EDTA in water, pH 8].
(§4) The peptides were then captured from the reaction mixture by transfer to a Reacti-Bind Streptavidin High Binding Capacity Coated Plates (HBC) (Pierce Biotechnology) as follows. The HBC plates were pre-rinsed three times with PBS/Tween PBS/Tween20 0.05% (PBS/Tween). Part of all of the reaction mixture was then transferred wells of a HBC plate pre-filled with 90 μl of phosphate-buffered saline (PBS); typically each aliquots of each phosphorylation reaction were transferred to duplicate HBC plates to assure accuracy by additional replication
(§5) For kinase assays done at the standard peptide concentration of 10 μM, the peptide concentration in the reaction mixture becomes 5 μM after addition of the stop solution; consequently 10 μl of the reaction (50 pMoles of peptide) was transferred to the HBC plate. More generally, the amount of reaction mixture transferred was estimated to be about 50 pMoles of peptide. […] The HBC plates were incubated for 0.5 to 1.5 hr at room temperature for complete binding of biotinylated peptides to plate-bound streptavidin. The HBC plates were then washed extensively with PBS/Tween. Five washes were done routinely and additional wash steps were added if the wash solution removed from the plate had measurable radioactivity as detected using a Geiger counter. This step is essential to obtaining a good the signal to noise ratio because the fraction of radioactivity incorporated in the peptides was a tiny fraction of the total in the reaction mixture. The wells were air-dried. A volume of 40-50 μl of microScint-20 (Packard Instruments) was added to each well. The plates were covered with stick-on film sheet. Radioactive emissions were measured in a TopCount NXT Microplate Scintillation and Luminescence Counter (Packard Instruments). Typically samples were counted for 5 minutes (or more) to improve the signal to noise ratio when counts were low. […]

PKA = molecular target: T2, PKA (Homo sapiens, UniProt P17612); assay: In vitro kinase assay: peptide phosphorylation by PKA; conditions: normalized to best substrate
T2 construct: purchased Calbiochem
Description: as §1, §2, §3, §4, §5

PKC-theta = molecular target: T3, PKC-theta (Homo sapiens, UniProt Q04759); assay: In vitro kinase assay: peptide phosphorylation by PKC-theta; conditions: for PKC theta phosphorylation: normalized to best substrate
T3 construct: His-tag; made in house; host or cells: baculovirus-infected Sf9 cells
T3 sequence (Q04759 whole entry): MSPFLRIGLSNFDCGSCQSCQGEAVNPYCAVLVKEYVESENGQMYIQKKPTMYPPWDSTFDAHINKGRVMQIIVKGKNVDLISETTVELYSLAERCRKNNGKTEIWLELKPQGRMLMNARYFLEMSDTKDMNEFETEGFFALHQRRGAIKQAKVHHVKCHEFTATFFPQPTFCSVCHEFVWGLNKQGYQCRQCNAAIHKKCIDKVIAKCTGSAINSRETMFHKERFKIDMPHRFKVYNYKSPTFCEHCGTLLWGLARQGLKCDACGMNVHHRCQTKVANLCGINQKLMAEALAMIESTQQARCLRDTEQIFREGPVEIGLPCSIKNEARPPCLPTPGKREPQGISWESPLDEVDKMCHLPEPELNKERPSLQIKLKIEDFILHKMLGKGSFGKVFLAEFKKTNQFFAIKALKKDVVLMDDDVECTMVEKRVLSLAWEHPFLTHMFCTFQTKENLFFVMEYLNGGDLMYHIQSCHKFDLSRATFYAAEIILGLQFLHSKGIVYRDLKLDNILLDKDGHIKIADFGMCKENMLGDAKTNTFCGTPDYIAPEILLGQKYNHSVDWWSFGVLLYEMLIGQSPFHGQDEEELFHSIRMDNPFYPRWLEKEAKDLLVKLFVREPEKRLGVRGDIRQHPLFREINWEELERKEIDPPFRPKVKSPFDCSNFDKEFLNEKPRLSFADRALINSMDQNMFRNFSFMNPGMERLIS
Outline: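 Recombinant human PKC-theta, expressed in baculovirus-infected Sf9 cells and purified on a nickel chelating column, was incubated with biotinylated peptides, 100 μM ATP containing ^32P-gamma ATP, and PKC buffer with CaCl2, MgCl2, phosphatidyl serine and PMA at 30° C. Reactions were stopped with ATP/EDTA. Peptides were captured on streptavidin-coated plates, and phosphorylation was normalized to the best substrate.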

T1 sequence (P31749 whole entry, species assumed): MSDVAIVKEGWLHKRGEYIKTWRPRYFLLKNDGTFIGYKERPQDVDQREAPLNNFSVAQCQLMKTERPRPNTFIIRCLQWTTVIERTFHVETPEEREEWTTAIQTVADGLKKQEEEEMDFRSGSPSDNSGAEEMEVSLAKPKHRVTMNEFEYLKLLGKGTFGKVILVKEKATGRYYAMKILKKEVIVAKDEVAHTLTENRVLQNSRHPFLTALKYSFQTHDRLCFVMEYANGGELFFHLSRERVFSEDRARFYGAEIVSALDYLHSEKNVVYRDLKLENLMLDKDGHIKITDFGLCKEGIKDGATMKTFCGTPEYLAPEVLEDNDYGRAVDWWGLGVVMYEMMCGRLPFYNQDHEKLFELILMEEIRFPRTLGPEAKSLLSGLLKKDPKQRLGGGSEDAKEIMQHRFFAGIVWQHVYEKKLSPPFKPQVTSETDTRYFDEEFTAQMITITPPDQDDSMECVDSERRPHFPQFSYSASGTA

Substance | AKT1 phosphorylation (AKT1) [%] | PKA phosphorylation (PKA) [%] | Peptide phosphorylation by PKC-theta (PKC-theta; Table 8) | PKC theta phosphorylation (PKC-theta) [%]
76 (HVRRRRGTFKRSKLRARD) [compound 76] | 100 | 69 | 99 | 100
77 (KKKKRASFKRKSSKKG) [compound 77] | 8 | 4 | – | 74
78 (KFARKSTRRSIRLPE) [compound 78] | 2 | 5 | – | 47
79 (NRKKKRTSFKRKA) [compound 79] | 7 | 3 | – | 33
80 (KKKKKRFSFKKSFKL) [compound 80] | 6 | 3 | – | 63
82 (PRLIRRGSKKRPAR) [compound 82] | 9 | 10 | – | 49
83 (RKIPKRPGSVHRTPSRQ) [compound 83] | 6 | 2 | – | 92
84 (QKKSRLRRRASQLKI) [compound 84] | 10 | 63 | – | 87
85 (RFARKGSLRQKNV) [compound 85] | 10 | 81 | – | 46
86 (RQRKRKLSFRRRTDKD) [compound 86] | 39 | 87 | – | 38
89 (EYLERRASRRRAV) [compound 89] | 1 | 4 | – | 60
90 (AQIVKRASLKRGKQ) [compound 90] | 3 | 3 | – | 38
92 (DGQKRKKSLRKKLD) [compound 92] | 2 | 18 | – | 47
93 (AARKKRISVKKKQEQ) [compound 93] | 7 | 1 | – | 40
94 (KLAVGRHSFSRRSGV) [compound 94] | 9 | 5 | – | 86
95 (KKKFRTPSFLKKSKK) [compound 95] | 9 | 2 | – | 42
96 (RGFLRSASLGRRASFHLE) [compound 96] | 32 | 86 | – | 21
99 (AGWRKKTSFRKPKED) [compound 99] | 6 | 1 | – | 25
100 (WKGKRRSKARKKRK) [compound 100] | 3 | 2 | – | 56
101 (GAPPRRSSIRNAH) [compound 101] | 12 | 100 | – | 29
102 (AGSFKRNSIKKIV) [compound 102] | 6 | 5 | – | 28
103 (LLKKRDSFRTPRDSKLE) [compound 103] | 7 | 3 | – | 24
104 (EKIKRSSLKKVDSLKK) [compound 104] | 2 | 1 | – | 25
105 (ALRRPSLRREADD) [compound 105] | 12 | 84 | – | 21
106 (EILSRRPSYRKILND) [compound 106] | 12 | 30 | – | 19
107 (QKRHARVTVKYDRRE) [compound 107] | 3 | 2 | – | 40
